The record followed here is patent WO2017208210A1.

The target in experiment [1] is T1, human MCAM expressed on CHO cells transfected with the full length human MCAM gene (human) (UniProt P43121).
T1 sequence: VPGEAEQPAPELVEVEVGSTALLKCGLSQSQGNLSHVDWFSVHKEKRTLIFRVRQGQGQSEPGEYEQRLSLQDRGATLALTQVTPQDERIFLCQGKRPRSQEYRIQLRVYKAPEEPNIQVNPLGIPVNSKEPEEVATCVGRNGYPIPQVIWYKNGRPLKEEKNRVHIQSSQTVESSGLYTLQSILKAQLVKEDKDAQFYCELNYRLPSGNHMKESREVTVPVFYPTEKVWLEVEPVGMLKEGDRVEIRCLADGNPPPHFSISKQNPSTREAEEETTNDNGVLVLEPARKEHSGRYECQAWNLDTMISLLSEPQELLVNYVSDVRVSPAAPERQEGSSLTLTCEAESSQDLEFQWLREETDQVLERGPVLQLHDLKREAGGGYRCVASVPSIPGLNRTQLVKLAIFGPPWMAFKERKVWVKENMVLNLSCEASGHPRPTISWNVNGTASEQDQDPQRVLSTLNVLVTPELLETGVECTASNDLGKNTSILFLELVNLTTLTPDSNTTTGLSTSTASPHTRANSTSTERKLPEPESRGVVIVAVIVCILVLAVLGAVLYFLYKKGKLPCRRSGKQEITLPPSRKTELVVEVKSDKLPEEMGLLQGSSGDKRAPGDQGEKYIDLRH
Description: laminin/FACS assay, blocking of laminin 411 binding to hMCAM expressing CHO cells.

In experiment [2] the target is T2, recombinant hMCAM-His (human) (UniProt P43121).
T2 sequence: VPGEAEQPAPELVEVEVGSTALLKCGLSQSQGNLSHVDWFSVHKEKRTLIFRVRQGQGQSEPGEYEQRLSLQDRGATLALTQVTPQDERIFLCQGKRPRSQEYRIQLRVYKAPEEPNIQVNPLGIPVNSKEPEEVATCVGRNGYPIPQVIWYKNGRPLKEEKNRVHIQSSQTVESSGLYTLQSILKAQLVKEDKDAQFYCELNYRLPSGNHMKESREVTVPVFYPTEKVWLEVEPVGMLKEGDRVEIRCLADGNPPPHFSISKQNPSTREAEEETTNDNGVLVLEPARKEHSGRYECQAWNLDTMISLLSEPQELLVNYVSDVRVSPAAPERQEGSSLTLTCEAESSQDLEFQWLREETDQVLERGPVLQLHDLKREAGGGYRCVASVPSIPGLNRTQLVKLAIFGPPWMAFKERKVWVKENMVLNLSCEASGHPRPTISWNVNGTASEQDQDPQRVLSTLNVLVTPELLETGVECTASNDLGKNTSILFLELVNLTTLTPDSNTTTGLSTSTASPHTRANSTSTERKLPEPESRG
Description: competitive ELISA on hMCAM-His against biotinylated rodent or chimeric antibody.

In experiment [3] the target is chimpanzee MCAM on circulating T cells (chimpanzee). Description: FACS, chimpanzee whole blood in vitro.

B1: humanized 2120 antibody VH5VL3 (G-A N-deamidation mutant VH/conservative VL) (antibody, V domains shown)
VH: QVTLKESGPVLVKPTETLTLTCTVSGFSLTSNAVSWVRQPPGKALEWIAAISSGGTTYYNSAFKSRLTISRDTSKSQVVLTMTNMDPVDTATYYCARRYGYGWYFDFWGQGTLVTVSS
VL: DIQMTQSPSSLSASVGDRVTINCKASQNIYNSLAWYQQKPGKAPKVLIFNANSLQTGIPSRFSGSGSGTDFTLTISSLQPEDFATYYCQQFYSGYTFGQGTKLEIK
As for B1, the fold reduction in potency (laminin blocking) against the rodent parent in experiment [1] was below 2 x. For the same molecule, the fold reduction in apparent affinity against the rodent parent in experiment [2] was below 2 x.

B2: PRX003 (humanized anti-MCAM antibody, human IgG1 kappa isotype) (antibody, V domains shown)
VH: EVTLKESGPVLVKPTETLTLTCTVSGFSLTSNAVSWVRQPPGKALEWIAAISSGGTTYYNSAFKSRLTISRDTSKSQVVLTMTNMDPVDTATYYCARRYGYGWYFDFWGQGTLVTVSS
VL: DIQMTQSPSSLSASVGDRVTINCKASQNIYNSLAWYQQKPGKAPKVLIFNANSLQTGIPSRFSGSGSGTDFTLTISSLQPEDFATYYCQQFYSGYTFGQGTKLEIK
Consider B2, for which, in experiment [3], the concentration required to saturate MCAM fell in the range of 1 to 3 µg/mL.
